Experimental data from FireProtDB (doi:10.1021/bi702211j).
Values joined by “and” are separate entries in the source; they are usually repeats but may differ in a detail not shown here. Identical values can stand only once.

Settings: Saccharomyces cerevisiae (strain ATCC 204508 / S288c), pH 7.5, 20 °C, Urea, HEPES 10 mM, NaCl 200 mM, reversible: Yes, whole UniProt chain shown

B1: Eukaryotic translation initiation factor 2 subunit alpha wild type, P20459 (protein)
chain: MSTSHCRFYENKYPEIDDIVMVNVQQIAEMGAYVKLLEYDNIEGMILLSELSRRRIRSIQKLIRVGKNDVAVVLRVDKEKGYIDLSKRRVSSEDIIKCEEKYQKSKTVHSILRYCAEKFQIPLEELYKTIAWPLSRKFGHAYEAFKLSIIDETVWEGIEPPSKDVLDELKNYISKRLTPQAVKIRADVEVSCFSYEGIDAIKDALKSAEDMSTEQMQVKVKLVAAPLYVLTTQALDKQKGIEQLESAIEKITEVITKYGGVCNITMPPKAVTATEDAELQALLESKELDNRSDSEDDEDESDDE
CD
  denaturant m value: 0.88 kcal/mol/M and 0.98 kcal/mol/M
  unfolding free energy: 2.45 kcal/mol and 2.95 kcal/mol and 4.61 kcal/mol
Fluorescence
  denaturant m value: 1.84 kcal/mol/M and 2.19 kcal/mol/M
  unfolding free energy: 5.17 kcal/mol and 6.66 kcal/mol and 5.45 kcal/mol
